Experimental data: publication PMC10989685 (2024)

Legend:
[1] = molecular target: Recombinant human His-tagged IgSF21 protein (R&D Systems #10330-S2) (human, UniProt Q96ID5 25-444); assay: SPR
[2] = molecular target: Neurexin2α (UniProt E9Q7X7); assay: SPR
Neurexin2α, sequence (E9Q7X7 29-1634): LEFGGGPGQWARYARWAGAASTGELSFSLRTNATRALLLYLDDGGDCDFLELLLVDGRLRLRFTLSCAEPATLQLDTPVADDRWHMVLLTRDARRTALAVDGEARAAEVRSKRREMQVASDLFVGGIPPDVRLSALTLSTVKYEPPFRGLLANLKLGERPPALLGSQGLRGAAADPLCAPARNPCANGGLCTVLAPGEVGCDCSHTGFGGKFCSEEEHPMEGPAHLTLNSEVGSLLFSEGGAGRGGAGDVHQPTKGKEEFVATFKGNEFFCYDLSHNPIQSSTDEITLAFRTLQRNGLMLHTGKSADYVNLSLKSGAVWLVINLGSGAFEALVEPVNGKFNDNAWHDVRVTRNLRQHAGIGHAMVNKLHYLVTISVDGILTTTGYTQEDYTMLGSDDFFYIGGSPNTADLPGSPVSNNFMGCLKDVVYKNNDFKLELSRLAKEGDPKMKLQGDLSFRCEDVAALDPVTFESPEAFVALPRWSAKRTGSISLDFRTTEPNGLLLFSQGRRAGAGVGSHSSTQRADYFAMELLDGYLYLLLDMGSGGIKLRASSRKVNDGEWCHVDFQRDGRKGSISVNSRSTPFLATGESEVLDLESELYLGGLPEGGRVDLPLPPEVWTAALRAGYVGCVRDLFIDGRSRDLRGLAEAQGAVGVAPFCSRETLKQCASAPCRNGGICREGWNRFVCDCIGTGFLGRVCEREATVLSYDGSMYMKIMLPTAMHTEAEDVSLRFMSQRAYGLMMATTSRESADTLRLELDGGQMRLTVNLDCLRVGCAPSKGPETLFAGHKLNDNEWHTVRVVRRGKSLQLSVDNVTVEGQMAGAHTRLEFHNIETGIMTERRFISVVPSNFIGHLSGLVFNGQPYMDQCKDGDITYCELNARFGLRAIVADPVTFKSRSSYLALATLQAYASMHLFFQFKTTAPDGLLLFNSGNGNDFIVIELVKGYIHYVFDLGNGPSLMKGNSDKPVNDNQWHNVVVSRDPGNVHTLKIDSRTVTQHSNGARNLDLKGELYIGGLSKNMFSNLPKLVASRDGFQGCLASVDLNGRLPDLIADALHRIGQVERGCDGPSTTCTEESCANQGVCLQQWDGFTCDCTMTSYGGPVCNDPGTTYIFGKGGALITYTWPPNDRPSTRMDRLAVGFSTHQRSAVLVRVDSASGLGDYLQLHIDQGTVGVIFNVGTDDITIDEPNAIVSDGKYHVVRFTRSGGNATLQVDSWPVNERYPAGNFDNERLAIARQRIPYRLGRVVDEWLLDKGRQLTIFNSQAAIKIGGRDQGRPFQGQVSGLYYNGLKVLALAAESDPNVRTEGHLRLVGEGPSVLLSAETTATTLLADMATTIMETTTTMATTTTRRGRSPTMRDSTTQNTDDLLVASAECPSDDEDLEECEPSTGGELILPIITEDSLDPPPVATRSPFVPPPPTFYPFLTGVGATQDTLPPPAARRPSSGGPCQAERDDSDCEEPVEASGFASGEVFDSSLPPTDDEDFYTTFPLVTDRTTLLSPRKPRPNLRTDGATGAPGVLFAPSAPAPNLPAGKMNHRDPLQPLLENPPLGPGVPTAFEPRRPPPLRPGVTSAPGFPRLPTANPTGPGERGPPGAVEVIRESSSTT

koff [1] [s⁻¹] | Kd [2] [nM] | Binder
0.00101 |  | Recombinant human Fc-tagged NRXN2α (human Nrxn2α-Fc, R&D Systems #6636-NX) (Fc fusion) not shown
 | 5.67 | IgSF21 (protein) YLTVNIEPLPPVVAGDAVTLKCNFKTDGRMREIVWYRVTDGGTIKQKIFTFDAMFSTNYSHMENYRKREDLVYQSTVRLPEVRISDNGPYECHVGIYDRATREKVVLASGNIFLNVMAPPTSIEVVAADSPAPFSRYQAQNFTLVCIVSGGKPAPMVYFKRDGEPIDAVPLTELPAASSGPVQDSRPFRSLLHRDVDDTKMQKSLSLLDTEYRAGRPYTERPARSLTQDPSLFVQPTTENIPETVVSREFPRWVHSAEPVYFLRHSRTPGSDGTVEVRALLTWTLNPQIDNEALFSCEVKHPALSMPMQAEVTLVAPKGPKIMMTPSRARVGDTVRILVHGFQNEVFPEPMFTWTRVGSRLLDGSAEFDGKELVLERVPAELNGSMYRCTAQNPLGSTDTHTRLIVFENPNIPRGTEDSRGSASGPAGVRLTLVLALTVILELT
